Assay [1] addresses T1, full-length KIF1C(Y757A ∙ F764A)−Flag−EGFP (UniProt O43896).
T1 sequence: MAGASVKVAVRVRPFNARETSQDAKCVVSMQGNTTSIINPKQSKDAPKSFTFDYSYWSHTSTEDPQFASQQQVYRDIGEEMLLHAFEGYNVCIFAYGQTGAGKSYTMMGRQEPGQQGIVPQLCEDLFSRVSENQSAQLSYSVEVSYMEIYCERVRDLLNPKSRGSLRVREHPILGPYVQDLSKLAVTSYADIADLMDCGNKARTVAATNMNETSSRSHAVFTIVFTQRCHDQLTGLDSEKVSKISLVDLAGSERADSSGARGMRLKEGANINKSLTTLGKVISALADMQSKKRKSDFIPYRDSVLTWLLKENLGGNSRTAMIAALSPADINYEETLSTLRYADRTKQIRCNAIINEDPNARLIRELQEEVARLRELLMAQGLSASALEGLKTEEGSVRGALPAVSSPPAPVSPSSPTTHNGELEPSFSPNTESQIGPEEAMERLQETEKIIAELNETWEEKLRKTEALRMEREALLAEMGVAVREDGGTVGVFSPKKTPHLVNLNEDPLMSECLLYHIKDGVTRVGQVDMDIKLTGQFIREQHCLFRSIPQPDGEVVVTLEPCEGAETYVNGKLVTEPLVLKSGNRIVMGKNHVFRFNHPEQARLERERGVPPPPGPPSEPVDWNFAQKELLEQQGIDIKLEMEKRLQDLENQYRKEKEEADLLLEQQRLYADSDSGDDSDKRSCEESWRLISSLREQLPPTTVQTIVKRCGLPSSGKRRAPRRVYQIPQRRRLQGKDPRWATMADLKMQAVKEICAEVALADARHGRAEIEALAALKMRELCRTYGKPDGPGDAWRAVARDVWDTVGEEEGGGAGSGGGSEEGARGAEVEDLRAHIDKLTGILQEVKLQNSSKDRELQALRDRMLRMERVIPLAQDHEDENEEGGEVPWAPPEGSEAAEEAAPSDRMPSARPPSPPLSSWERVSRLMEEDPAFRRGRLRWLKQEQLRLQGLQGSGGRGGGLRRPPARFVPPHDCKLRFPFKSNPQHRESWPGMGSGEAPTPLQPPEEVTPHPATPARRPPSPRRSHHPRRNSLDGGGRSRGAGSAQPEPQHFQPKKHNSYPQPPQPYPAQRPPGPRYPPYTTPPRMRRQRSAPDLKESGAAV

The target in assay [2] is T2, full-length KIF1C(WT)−Flag−EGFP (UniProt O43896).
T2 sequence: T1 sequence with A757Y, A764F

This passage reports tail/cytoplasm ratio of Hook3−Myc−FuRed upon co-expression in RPE1 cells, 16 h post transfection (tail/cytoplasm ratio) results from publication PMC12152161.

Substitutions are numbered along the chain they refer to. Numbers in names are those of the source.

B1: full-length Hook3(V614E)−Myc−FuRed (natural protein)
chain: MFSVESLERAELCESLLTWIQTFNVDAPCQTVEDLTNGVVMAQVLQKIDPAYFDENWLNRIKTEVGDNWRLKISNLKKILKGILDYNHEILGQQINDFTLPDVNLIGEHSDAAELGRMLQLILGCAVNCEQKQEYIQAIMMMEESVQHVVMTAIQELMSKESPVSAGNDAYVDLDRQLKKTTEELNEALSAKEEIAQRCHELDMQVAALQEEKSSLLAENQVLMERLNQSDSIEDPNSPAGRRHLQLQTQLEQLQEETFRLEAAKDDYRIRCEELEKEISELRQQNDELTTLADEAQSLKDEIDVLRHSSDKVSKLEGQVESYKKKLEDLGDLRRQVKLLEEKNTMYMQNTVSLEEELRKANAARSQLETYKRQVVELQNRLSEESKKADKLDFEYKRLKEKVDSLQKEKDRLRTERDSLKETIEELRCVQAQEGQLTTQGLMPLGSQESSDSLAAEIVTPEIREKLIRLQHENKMLKLNQEGSDNEKIALLQSLLDDANLRKNELETENRLVNQRLLEVQSQVEELQKSLQDQGSKAEDSVLLKKKLEEHLEKLHEANNELQKKRAIIEDLEPRFNNSSLKIEELQEALRKKEEEMKQMEERYKKYLEKAKSEIRTLDPKQNQGAAPEIQALKNQLQERDRLFHSLEKEYEKTKSQREMEEKYIVSAWYNMGMTLHKKAAEDRLASTGSGQSFLARQRQATSSRRSYPGHVQPATAR
For B1, the tail/cytoplasm ratio of Hook3−Myc−FuRed upon co-expression in RPE1 cells, 16 h post transfection (tail/cytoplasm ratio) in assay [1] and in assay [2] was 0.7 throughout.

B2: full-length Hook3(WT)−Myc−FuRed (natural protein)
chain: B1 chain with E614V
As to B2, the tail/cytoplasm ratio of Hook3−Myc−FuRed upon co-expression in RPE1 cells, 16 h post transfection (tail/cytoplasm ratio) in assay [1] came out at 0.7.
